Common to all, as to assay: SEC
Test [1] addresses Acinetobacter baumannii BigR (Acinetobacter baumannii).
The target in test [2] is C9S SqrR, reduced (Rhodobacter capsulatus).
The target in test [3] is C9S/C41S SqrR (Rhodobacter capsulatus).
The target in test [4] is C9S/C107S SqrR (Rhodobacter capsulatus).
Test [5] has as its target wild-type SqrR (sulfide quinone reductase repressor), reduced (Rhodobacter capsulatus).

From article doi:10.1101/2020.03.22.001966 come the findings set out here.

Broadly, the stoichiometry N is a count of units in the complex or per binding partner.

On to “Acinetobacter baumannii BigR (natural protein)”, for which, in test [1], the stoichiometry N was found to be 2.

C9S SqrR, reduced (natural protein): in test [2], the stoichiometry N came out at 2.

In test [3], C9S/C41S SqrR (natural protein) had a stoichiometry N of 2.

In the case of C9S/C107S SqrR (natural protein), the stoichiometry N in test [4] was found to be 2.

“wild-type SqrR (sulfide quinone reductase repressor), reduced (natural protein)” showed a stoichiometry N in test [5] of 2.
